Experimental data as given in patent US20150023971A1.

Tests used:
[1] = target: T1, …; assay: SPOT length analysis, dot 13, HRP-S-protein detection
T1 sequence (peptide): FRSSDFAKNFVQ

[2] = target: T2, sortilin peptide … on SPOT membrane; assay: SPOT length analysis, dot 36, HRP-S-protein detection
T2 sequence (peptide, C-terminus anchored to the cellulose membrane through a beta-alanine linker): FAKNFVQTD

FAKNFVQT = target: T3, FAKNFVQT; assay: SPOT length analysis, dot 44, HRP-S-protein detection
T3 sequence (peptide): FAKNFVQT

RSSDFAK = target: T4, RSSDFAK; assay: SPOT length analysis, dot 49, anti-histidine detection
T4 sequence (peptide): RSSDFAK

RSSDFAKN = target: T5, RSSDFAKN; assay: SPOT length analysis, dot 40, HRP-S-protein detection
T5 sequence (peptide): RSSDFAKN

KNFVQT = target: T6, KNFVQT; assay: SPOT length analysis, dot 65, HRP-S-protein detection
T6 sequence (peptide): KNFVQT

[3] = target: T7, sortilin peptide … on SPOT membrane; assay: SPOT length analysis, dot 1, HRP-S-protein detection
T7 sequence (peptide, C-terminus anchored to the cellulose membrane through a beta-alanine linker): RIFRSSDFAKNFVQTD

DFAKNF = target: T8, DFAKNF; assay: SPOT length analysis, dot 62, HRP-S-protein detection
T8 sequence (peptide): DFAKNF

FAKNFVQ = target: T9, FAKNFVQ; assay: SPOT length analysis, dot 53, anti-histidine detection
T9 sequence (peptide): FAKNFVQ

AKNF = target: T10, AKNF; assay: SPOT length analysis, dot 87, anti-histidine detection
T10 sequence (peptide): AKNF

FRSS = target: T11, FRSS; assay: SPOT length analysis, dot 81, HRP-S-protein detection
T11 sequence (peptide): FRSS

[4] = target: T12, …; assay: SPOT length analysis, dot 16, anti-histidine detection
T12 sequence (peptide): RIFRSSDFAKN

FAKNF = target: T13, FAKNF; assay: SPOT length analysis, dot 74, anti-histidine detection
T13 sequence (peptide): FAKNF

FRSSDFAK = target: T14, FRSSDFAK; assay: SPOT length analysis, dot 39, anti-histidine detection
T14 sequence (peptide): FRSSDFAK

[5] = target: T15, …; assay: SPOT length analysis, dot 27, anti-histidine detection
T15 sequence (peptide): SDFAKNFVQT

KNFVQ = target: T16, KNFVQ; assay: SPOT length analysis, dot 76, anti-histidine detection
T16 sequence (peptide): KNFVQ

[6] = target: T17, …; assay: SPOT length analysis, dot 20, HRP-S-protein detection
T17 sequence (peptide): SSDFAKNFVQT

[7] = target: T18, …; assay: SPOT length analysis, dot 19, anti-histidine detection
T18 sequence (peptide): RSSDFAKNFVQ

[8] = target: T19, …; assay: SPOT length analysis, dot 24, HRP-S-protein detection
T19 sequence (peptide): FRSSDFAKNF

IFRS = target: T20, IFRS; assay: SPOT length analysis, dot 80, anti-histidine detection
T20 sequence (peptide): IFRS

AKNFVQTD = target: T21, AKNFVQTD; assay: SPOT length analysis, dot 45, anti-histidine detection
T21 sequence (peptide): AKNFVQTD

SDFA = target: T22, SDFA; assay: SPOT length analysis, dot 84, HRP-S-protein detection
T22 sequence (peptide): SDFA

RIFRSS = target: T23, RIFRSS; assay: SPOT length analysis, dot 56, HRP-S-protein detection
T23 sequence (peptide): RIFRSS

[9] = target: T24, …; assay: SPOT length analysis, dot 28, HRP-S-protein detection
T24 sequence (peptide): DFAKNFVQTD

[10] = target: T25, sortilin 4-mer peptide RIFR (length analysis); assay: SPOT length analysis, dot 79, anti-histidine detection
T25 sequence (peptide, C-terminus anchored to the cellulose membrane through a beta-alanine linker): RIFR

VQTD = target: T26, VQTD; assay: SPOT length analysis, dot 91, anti-histidine detection
T26 sequence (peptide): VQTD

FRSSDF [11] = target: T27, FRSSDF; assay: SPOT length analysis, dot 58, anti-histidine detection
T27 sequence (peptide): FRSSDF

[12] = target: T28, …; assay: SPOT length analysis, dot 14, HRP-S-protein detection
T28 sequence (peptide): RSSDFAKNFVQT

[13] = target: T29, sortilin peptide RIFRSSDF on SPOT membrane; assay: SPOT length analysis, dot 37, HRP-S-protein detection
T29 sequence (peptide, C-terminus anchored to the cellulose membrane through a beta-alanine linker): RIFRSSDF

SSDFAKNF = target: T30, SSDFAKNF; assay: SPOT length analysis, dot 41, anti-histidine detection
T30 sequence (peptide): SSDFAKNF

[14] = target: T31, …; assay: SPOT length analysis, dot 18, anti-histidine detection
T31 sequence (peptide): FRSSDFAKNFV

FRSSDF [15] = target: T27, FRSSDF; assay: SPOT length analysis, dot 58, HRP-S-protein detection
[16] = target: T32, …; assay: SPOT length analysis, dot 25, anti-histidine detection
T32 sequence (peptide): RSSDFAKNFV

B1: recombinant his-S-tagged pro-domain of human BDNF (residues Ala1-Arg110), from pET-30 Xa/LIC, E. coli (protein, not shown: small tags and cut ends)
chain: APMKEANIRGQGGLAYPGVRTHGTLESVNGPKAGSGLTSLADTFEHVIEELLDEDQKVRPNEENNKDADLYTSRVMLSSQVPLEPPLLFLLEEYKNYLDAANMSMRVRR
B1 showed a BLU Sprotein [1] of 199000 BLU, a BLU Sprotein [2] of 18800 BLU and a BLU Sprotein (FAKNFVQT) of 23600 BLU. For the same binder, the BLU His (RSSDFAK) was 17300 BLU, the BLU Sprotein (RSSDFAKN) was 17200 BLU and the BLU Sprotein (KNFVQT) was 14300 BLU. For the same binder, the BLU Sprotein [3] was 137000 BLU, the BLU Sprotein (DFAKNF) was 15200 BLU and the BLU His (FAKNFVQ) was 69600 BLU. The BLU His (AKNF) was 14600 BLU, the BLU Sprotein (FRSS) was 37000 BLU and the BLU His [4] was 53000 BLU. It also gave a BLU His (FAKNF) of 31900 BLU, a BLU His (FRSSDFAK) of 19000 BLU and a BLU His [5] of 17500 BLU. It also gave a BLU His (KNFVQ) of 18200 BLU, a BLU Sprotein [6] of 18400 BLU and a BLU His [7] of 26000 BLU. The BLU Sprotein [8] was 70400 BLU, the BLU His (IFRS) was 51100 BLU and the BLU His (AKNFVQTD) was 16000 BLU. It also gave a BLU Sprotein (SDFA) of 13300 BLU, a BLU Sprotein (RIFRSS) of 94400 BLU and a BLU Sprotein [9] of 19000 BLU. The BLU His [10] was 127000 BLU, the BLU His (VQTD) was 15100 BLU and the BLU His (FRSSDF [11]) was 17500 BLU. For the same binder, the BLU Sprotein [12] was 24600 BLU, the BLU Sprotein [13] was 114000 BLU and the BLU His (SSDFAKNF) was 15500 BLU. It also gave a BLU His [14] of 19400 BLU, a BLU Sprotein (FRSSDF [15]) of 16900 BLU and a BLU His [16] of 23000 BLU.
